Variants at the floor of the assay were thinned out.
B1: TPR 5TU (parent)
chain: GGAUCUUCUCGAUCUAACAAAAAAGACAAAUCUGCCACAAAGCUUGAGAGCAUCUUCGGAUGCAGAGGCGGCAGCCUUCGGUGGCGCGAUAGCGCCAACGUUCUCAACUAUGACACGCAAAACGCGUGCUCCGUUGAAUGGAGUUUAUCAUG

Variants of: B1
Assay: polymerase ribozyme fitness, log enrichment relative to wild type (log ratio); higher = more active; in vitro selection for triplet polymerase activity
In short: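 Only genotypes with ≥10 input reads and ≥1 read per output were kept after Illumina sequencing of input and output libraries. These libraries were PCR-built, transcribed mutants of each subunit of a heterodimeric triplet polymerase ribozyme, each put through one triplicate in vitro selection round with frozen incubation at −7 °C, gel excision of extended constructs, streptavidin-bead capture and RT-PCR. Fitness is a logarithmic ratio of genotype enrichment to wild-type enrichment, from inverse-variance-weighted replicate averages, with the logarithm in base 2.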

Going from GGAUCUUCUCGAUCAAACAAGAAAGACAAAUCUGCGACAAAGCUUGAGAGCAUCUUCGGCUGCAGAGGCGGCAGCCUUCGGUGGCGCGAUAGCGCAAACGUUCUCAACUAUGACACGCAAAACGCGUGCUCCGUUGAAUGGAGUUUCUCAUG [U15A A21G C36G A60C C96A A147C] to GGAUCUUCUCGAUCAAACAAAAAAGACAAAUCUGCCACACAGCUUGAGAGCAUCUUCGGAUGCAGAGGCGGCAGCCUUCGGUGGCGCGAUAGCGCCAACGUUCUCAACUAUGACACGCAAAACGCGUGCUCCGUUGAAUGGAGUUUAUCAUG [U15A A40C], the “polymerase ribozyme fitness (log ratio)” value rises from no more than -4.2 to 0.538.

GGAUCUUCUCGAUCAAACAAAAAAGACAAAUCUGCCACAAAGCUUGAGAGCAUCUUUGGAUGAAGAGACGGCAGCCUUCGGUGGCGUGAUAGCGCCAACGUUCUCAACUAUGACACGCAAAUCGCGUGCUCCGUUGAAUGGAGUUUAUCAUG [U15A C57U C63A G68A C87U A122U] and GGAUCUUCUCGAUCAAACAAAAAGUACAAAUAUGCCACAAAGCUUGAGAGCAUCUACGCAUGCAGAGGCGGCAGCCUUCGGGGGCGCGAUAGCGCCAACGUUGUCAACUAUGACACGCAAAACGCGUGCUCCGUUGAAUGGAGUUUAUCAUG [U15A A24G G25U C32A U56A G59C U82G C103G] cannot be ordered by “polymerase ribozyme fitness (log ratio)” value: no more than -4.2 for the first, no more than -4.2 for the second.

GGAUCUUCUCGAUCAAACAAAAAAGACAAAUCUGCCACCAAGCUUGAGAGCAUCUUCGGAUGCAGAGGCGGCAGCCUUCGGUGGCGCGAUAGCGCCAACGUUCUCAACUAUGACACGCAAAAUGCGUGCUCCGUUGCAUGGAGUUUAUCACG [U15A A39C C123U A137C U151C] and GGAUCUUCUCGAUCAAACAAAAAAGACACAUCUGCCAUAAAGCUUGAGAGCAUCUUCGGAUGCAGAGGCGGCAGCCUUCGGUGGCGCGAUAGCGCCAACGUUCUCAACUAUGACACGCUAAACGCAUGCUCCGUUGAAUGGAGAUUAUGAUG [U15A A29C C38U A119U G126A U144A C149G] cannot be ordered by “polymerase ribozyme fitness (log ratio)” value: no more than -4.2 for the first, no more than -4.2 for the second.

GGAUCUUCUCGAUCAAACAGAAAAGACAAAUCUGCCACAAAGCAUGAGAGCAUCUUCGGAUGCAGAGGCGGCAGCCUUCGGUGGCGCGAUAGCGCCAACGUUCUCAACUAUGACACGCAACACGCGUGCUCCGUUUAAUGGAGUUUAUCAUG [U15A A20G U44A A121C G136U] and GGAUCUUCUCGAUCAAACAAAAAAGACAAAUCUGUCACAAAGCUUGAGAGCAUCAUCGGAUGCAGAGGCGGCAGCCUUCGGUGGCGCGAUAGCGCGAACGUUCUCAUCUAUGACACGCAAAACGCGUGCUCCGUCGAAUGGAGUUUAUCAUG [U15A C35U U55A C96G A107U U135C] cannot be ordered by “polymerase ribozyme fitness (log ratio)” value: no more than -4.2 for the first, no more than -4.2 for the second.

First: GGAUCUUCUCGAUCAAACAAAAAAGCCAAAUCUGCCACAAAGCUUGAGAGCAUCUUCGGAUGCAGAGGCGGCAGCCUUCGGUGGCGCGAUAGCGCCAACGUUCUCAACUAUGACACGCAAAACGCGUGCUCCGUUGAAUGGAGUUUAUCAUG [U15A A26C]
Second: GGAUCUUCUCGAUCAAACAAAAAAAACAAAUCUGCCACAAACCUUGAGAGCAUCUUCGGAUGCAGAGGCGGCAGCCUUAGGUGGCGCGAUAGCGCCAACGUUCUCAACUAUGACACGCAAAACGCGUGCUCCGUUGAAUGGAGUUUAUCAUG [U15A G25A G42C C79A]
The “polymerase ribozyme fitness (log ratio)” value of the first is higher: -1.44 for the first, no more than -4.2 for the second.

Compared with GGAUCUUCUCGAUCAAACAAAAAAGACAAAUCUGCCACAAAGCUUGAGAGCAUCUUCGGAUGUAGAGGCGGCAGCCUUCGGUGGCGCGAUAGCGCCAACGUUCUCAACUAUGACACGCAAAACGCGUGCUCCGUUGAAUGGAGUUUAUCAAG [U15A C63U U151A], GGAUCUUCUCGAUCAAACAAAAAAGACAAAUAUGCCACAAAGCUUGAGAGCAUCUGCUGAUGCAGAGGCGGCAGCCUUCGGUGUCGCGAUAGCGCCAACGUUCUCAAUUAUGACACGCAAAACGCGUGCUCCGUUGAAGGGAGUUUAUCAUG [U15A C32A U56G G58U G84U C108U U139G] is lower in “polymerase ribozyme fitness (log ratio)” value: -3.9 for the first, no more than -4.2 for the second.

GGAUCUUCUCGAUCAAACAACAAAGACAAAUCUGCCACAAAGCUUGAGAGCAUCUUCGGAUGCAGAGGCGGCGGCCUUCGGUGGCGCGAUAGCGUCAACGUUCUCAACUAUGACACGCAAAACGCGUGCUCCGUGGAGCGGAGUUUAUCAUG [U15A A21C A73G C95U U135G A138G U139C] and GGAUCUUCUCGAUCAAACAAAAAAGCCAAAUCUUCCACAAAGCUUGAGAGCAUCUUCGGAUGCAGAGGCGGCAGCCUUCGGUGGCGCGAUAGCGCCAACGUUCUGAACUAUGACACGCAAAACGCGUGCUCCGUUGAAUGGACUUUAUCAUG [U15A A26C G34U C105G G143C] cannot be ordered by “polymerase ribozyme fitness (log ratio)” value: no more than -4.2 for the first, no more than -4.2 for the second.

Compared with GGAUCUUCUCGAUCAAACAAAAAAGACAAAUCUGCCAAAACGCUUGAGAGCAUCUUCGGAUGCAGAGGCGGCAGUCUUCGGUGGCGCGAUAGCGCCAACGUUCUCAACUAUGACACGCAAAACGCGUGCUCCGUCGAAUGGAGUUUAUCAUG [U15A C38A A41C C75U U135C], GGAUCUUCUCGAUCAAACAAAAAAGACAAAUCUGCCAUAAAGCUUGAGAGCAUCUUCAGAGGCAGAGACGGCAGCCUUCGGUAGCGGGAUAGCGCCAACGUUCUCCACUAUGACACGCAAAACGCGUGCUCCGUUGAAUGGAGUCUAUCAUG [U15A C38U G58A U61G G68A G83A C87G A106C U145C] is lower in “polymerase ribozyme fitness (log ratio)” value: -3.63 for the first, no more than -4.2 for the second.

GGAUCUUCUCGAUCAAACAAAAAAGACAAAUCUGCCACAAAGCUUGCCAGCAUCUUCCGAUGCAGAGGCGGCAGCCUUCGGUGGCGCGAUAGCGCCAACGUUCUCAACUAUGACACGCAAAACGUGUGCUCCGUUGAAUAGAGUUUAUCAUG [U15A A47C G48C G58C C125U G140A] and GGAUCUUCUCGAUCAAACAAAGAAGACAAAUCUGCAACAAAGCUUGAGAGCAUCUUCGGAUGCAGAGGCGGUAGCCUUCGGUGGUGCGAUAGCGCCAACGUUCUCAACUAUGACACGCAAAACGCGUGCUCUGUUGAAUGGAGUUUAUCAUG [U15A A22G C36A C72U C85U C132U] cannot be ordered by “polymerase ribozyme fitness (log ratio)” value: no more than -4.2 for the first, no more than -4.2 for the second.

For GGAUCUUCUCGAUCAAACAAAAAAGACAAAUCUGCCACAAAGCUUGAGAGCAUCUUAGGAUGCAGAGGCGGCAGCUUUCGGUGCCGCGAUAGCGCCAACGUUCUCAACUAUGACACGCAAAACGCGUGCUCCGUUGAAUGGAGUUUAUCAUG [U15A C57A C76U G84C], the “polymerase ribozyme fitness (log ratio)” value was -1.52.

From the RNAGym collection of RNA variant scans (doi:10.1073/pnas.2313332121)
